Test results reported in patent US20110263454A1, “Methods of Identifying Functional Characteristics of Promoters, Transcription Modifying Proteins and Transcription Modulating Agents” (Salk Institute for Biological Studies, priority 2008, published 2011).

B1: hMR: Mineralocorticoid Receptor (NR3C2, MR), cDNA driver (protein, UniProt P08235 1-984, looked up)
Mineralocorticoid receptor: METKGYHSLPEGLDMERRWGQVSQAVERSSLGPTERTDENNYMEIVNVSCVSGAIPNNSTQGSSKEKQELLPCLQQDNNRPGILTSDIKTELESKELSATVAESMGLYMDSVRDADYSYEQQNQQGSMSPAKIYQNVEQLVKFYKGNGHRPSTLSCVNTPLRSFMSDSGSSVNGGVMRAVVKSPIMCHEKSPSVCSPLNMTSSVCSPAGINSVSSTTASFGSFPVHSPITQGTPLTCSPNVENRGSRSHSPAHASNVGSPLSSPLSSMKSSISSPPSHCSVKSPVSSPNNVTLRSSVSSPANINNSRCSVSSPSNTNNRSTLSSPAASTVGSICSPVNNAFSYTASGTSAGSSTLRDVVPSPDTQEKGAQEVPFPKTEEVESAISNGVTGQLNIVQYIKPEPDGAFSSSCLGGNSKINSDSSFSVPIKQESTKHSCSGTSFKGNPTVNPFPFMDGSYFSFMDDKDYYSLSGILGPPVPGFDGNCEGSGFPVGIKQEPDDGSYYPEASIPSSAIVGVNSGGQSFHYRIGAQGTISLSRSARDQSFQHLSSFPPVNTLVESWKSHGDLSSRRSDGYPVLEYIPENVSSSTLRSVSTGSSRPSKICLVCGDEASGCHYGVVTCGSCKVFFKRAVEGQHNYLCAGRNDCIIDKIRRKNCPACRLQKCLQAGMNLGARKSKKLGKLKGIHEEQPQQQQPPPPPPPPQSPEEGTTYIAPAKEPSVNTALVPQLSTISRALTPSPVMVLENIEPEIVYAGYDSSKPDTAENLLSTLNRLAGKQMIQVVKWAKVLPGFKNLPLEDQITLIQYSWMCLSSFALSWRSYKHTNSQFLYFAPDLVFNEEKMHQSAMYELCQGMHQISLQFVRLQLTFEEYTIMKVLLLLSTIPKDGLKSQAAFEEMRTNYIKELRKMVTKCPNNSGQSWQRFYQLTKLLDSMHDLVSDLLEFCFYTFRESHALKVEFPAMLVEIISDQLPKVESGNAKPLYFHRK
B2: NR4a3: NR4a3 (NR4A3; NOR1), nuclear hormone receptor cDNA driver (protein, UniProt Q92570 1-626, looked up)
Nuclear receptor subfamily 4 …: MPCVQAQYSPSPPGSSYAAQTYSSEYTTEIMNPDYTKLTMDLGSTEITATATTSLPSISTFVEGYSSNYELKPSCVYQMQRPLIKVEEGRAPSYHHHHHHHHHHHHHHQQQHQQPSIPPASSPEDEVLPSTSMYFKQSPPSTPTTPAFPPQAGALWDEALPSAPGCIAPGPLLDPPMKAVPTVAGARFPLFHFKPSPPHPPAPSPAGGHHLGYDPTAAAALSLPLGAAAAAGSQAAALESHPYGLPLAKRAAPLAFPPLGLTPSPTASSLLGESPSLPSPPSRSSSSGEGTCAVCGDNAACQHYGVRTCEGCKGFFKRTVQKNAKYVCLANKNCPVDKRRRNRCQYCRFQKCLSVGMVKEVVRTDSLKGRRGRLPSKPKSPLQQEPSQPSPPSPPICMMNALVRALTDSTPRDLDYSRYCPTDQAAAGTDAEHVQQFYNLLTASIDVSRSWAEKIPGFTDLPKEDQTLLIESAFLELFVLRLSIRSNTAEDKFVFCNGLVLHRLQCLRGFGEWLDSIKDFSLNLQSLNLDIQALACLSALSMITERHGLKEPKRVEELCNKITSSLKDHQSKGQALEPTESKVLGALVELRKICTLGLQRIFYLKLEDLVSPPSIIDKLFLDTLPF
B3: NR4a2: NR4a2 (NR4A2; NURR1), nuclear hormone receptor cDNA driver (protein, UniProt P43354 1-598, looked up)
Nuclear receptor subfamily 4 …: MPCVQAQYGSSPQGASPASQSYSYHSSGEYSSDFLTPEFVKFSMDLTNTEITATTSLPSFSTFMDNYSTGYDVKPPCLYQMPLSGQQSSIKVEDIQMHNYQQHSHLPPQSEEMMPHSGSVYYKPSSPPTPTTPGFQVQHSPMWDDPGSLHNFHQNYVATTHMIEQRKTPVSRLSLFSFKQSPPGTPVSSCQMRFDGPLHVPMNPEPAGSHHVVDGQTFAVPNPIRKPASMGFPGLQIGHASQLLDTQVPSPPSRGSPSNEGLCAVCGDNAACQHYGVRTCEGCKGFFKRTVQKNAKYVCLANKNCPVDKRRRNRCQYCRFQKCLAVGMVKEVVRTDSLKGRRGRLPSKPKSPQEPSPPSPPVSLISALVRAHVDSNPAMTSLDYSRFQANPDYQMSGDDTQHIQQFYDLLTGSMEIIRGWAEKIPGFADLPKADQDLLFESAFLELFVLRLAYRSNPVEGKLIFCNGVVLHRLQCVRGFGEWIDSIVEFSSNLQNMNIDISAFSCIAALAMVTERHGLKEPKRVEELQNKIVNCLKDHVTFNNGGLNRPNYLSKLLGKLPELRTLCTQGLQRIFYLKLEDLVPPPAIIDKLFLDTLPF
B4: PR: Progesterone Receptor (NR3C3), cDNA driver (protein, UniProt P06401 1-933, looked up)
Progesterone receptor: MTELKAKGPRAPHVAGGPPSPEVGSPLLCRPAAGPFPGSQTSDTLPEVSAIPISLDGLLFPRPCQGQDPSDEKTQDQQSLSDVEGAYSRAEATRGAGGSSSSPPEKDSGLLDSVLDTLLAPSGPGQSQPSPPACEVTSSWCLFGPELPEDPPAAPATQRVLSPLMSRSGCKVGDSSGTAAAHKVLPRGLSPARQLLLPASESPHWSGAPVKPSPQAAAVEVEEEDGSESEESAGPLLKGKPRALGGAAAGGGAAAVPPGAAAGGVALVPKEDSRFSAPRVALVEQDAPMAPGRSPLATTVMDFIHVPILPLNHALLAARTRQLLEDESYDGGAGAASAFAPPRSSPCASSTPVAVGDFPDCAYPPDAEPKDDAYPLYSDFQPPALKIKEEEEGAEASARSPRSYLVAGANPAAFPDFPLGPPPPLPPRATPSRPGEAAVTAAPASASVSSASSSGSTLECILYKAEGAPPQQGPFAPPPCKAPGASGCLLPRDGLPSTSASAAAAGAAPALYPALGLNGLPQLGYQAAVLKEGLPQVYPPYLNYLRPDSEASQSPQYSFESLPQKICLICGDEASGCHYGVLTCGSCKVFFKRAMEGQHNYLCAGRNDCIVDKIRRKNCPACRLRKCCQAGMVLGGRKFKKFNKVRVVRALDAVALPQPVGVPNESQALSQRFTFSPGQDIQLIPPLINLLMSIEPDVIYAGHDNTKPDTSSSLLTSLNQLGERQLLSVVKWSKSLPGFRNLHIDDQITLIQYSWMSLMVFGLGWRSYKHVSGQMLYFAPDLILNEQRMKESSFYSLCLTMWQIPQEFVKLQVSQEEFLCMKVLLLLNTIPLEGLRSQTQFEEMRSSYIRELIKAIGLRQKGVVSSSQRFYQLTKLLDNLHDLVKQLHLYCLNTFIQSRALSVEFPEMMSEVIAAQLPKILAGMVKPLLFHKK
B5: GCNF: Germ Cell Nuclear Factor (NR6A1, GCNF1), cDNA driver (protein, UniProt Q15406 1-480, looked up)
Nuclear receptor subfamily 6 …: MERDEPPPSGGGGGGGSAGFLEPPAALPPPPRNGFCQDELAELDPGTISVSDDRAEQRTCLICGDRATGLHYGIISCEGCKGFFKRSICNKRVYRCSRDKNCVMSRKQRNRCQYCRLLKCLQMGMNRKAIREDGMPGGRNKSIGPVQISEEEIERIMSGQEFEEEANHWSNHGDSDHSSPGNRASESNQPSPGSTLSSSRSVELNGFMAFREQYMGMSVPPHYQYIPHLFSYSGHSPLLPQQARSLDPQSYSLIHQLLSAEDLEPLGTPMLIEDGYAVTQAELFALLCRLADELLFRQIAWIKKLPFFCELSIKDYTCLLSSTWQELILLSSLTVYSKQIFGELADVTAKYSPSDEELHRFSDEGMEVIERLIYLYHKFHQLKVSNEEYACMKAINFLNQDIRGLTSASQLEQLNKRYWYICQDFTEYKYTHQPNRFPDLMMCLPEIRYIAGKMVNVPLEQLPLLFKVVLHSCKTSVGKE

What was measured:
mGhrelin promoter = assay: NHR-promoter luciferase screen, mGhrelin promoter; assay type: cell-based, mouse; details: for Luc. act., normalized to lacZ / Normalized Luc. act., normalized to control: Table 8, mGhrelin; for Results of assays of transcription factor (+/- ligand) with mGhrelin: Table 6d, luciferase activity relative to control (control = 1.00)
Procedure, shortened: (§1)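 CV-1 cells were co-transfected with 50 ng NHR (homodimer or NHR/RXR heterodimer), 100 ng promoter-luciferase construct and 50 ng LacZ. Luciferase was normalized to LacZ and to a no-NHR/no-ligand control.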

mNPY promoter = assay: NHR-promoter luciferase screen, mNPY promoter; assay type: cell-based, mouse; details: for Results of assays of transcription factor (+/- ligand) with mNPY: Table 6d, luciferase activity relative to control (control = 1.00); for Luc. act., normalized to lacZ / Normalized Luc. act., normalized to control: mNPY promoter, HR component with or without ligand; for Normalized Luc. act., normalized to control: relative to control
Procedure, shortened: as §1

mCAR promoter = assay: NHR-promoter luciferase screen, mCAR promoter; assay type: cell-based, mouse; details: for luciferase activity normalized to lacZ activity and to a control, mCAR: mCAR promoter-luciferase, CV-1 cells, NHR +/- ligand, control = 1.00; for Luc. act., normalized to lacZ / Normalized Luc. act., normalized to control: mCAR promoter, HR/ligand component
Procedure, shortened: as §1

hCAR promoter = assay: NHR-promoter luciferase screen, hCAR promoter; assay type: cell-based, human; details: for luciferase activity normalized to lacZ activity and to a control, hCAR: hCAR promoter-luciferase, CV-1 cells, NHR +/- ligand, control = 1.00; for Luc. act., normalized to lacZ / Normalized Luc. act., normalized to control: hCAR promoter, HR/ligand component
Procedure, shortened: as §1

mDio1 promoter = assay: NHR-promoter luciferase screen, mDio1 promoter; assay type: cell-based, mouse; details: for Luc. act., normalized to lacZ / Normalized Luc. act., normalized to control: Dio1, HR component without or with its ligand; for mDio1 promoter reporter activity: transcription factor +/- ligand, control = 1.00
Procedure, shortened: as §1

| Molecule | Luc. act., normalized to lacZ (mGhrelin promoter) | Normalized Luc. act., normalized to control (mGhrelin promoter) | Results of assays of transcription factor (+/- ligand) with mGhrelin (mGhrelin promoter) | Results of assays of transcription factor (+/- ligand) with mNPY (mNPY promoter) | Luc. act., normalized to lacZ (mNPY promoter) | Normalized Luc. act., normalized to control (mNPY promoter) | luciferase activity normalized to lacZ activity and to a control, mCAR (mCAR promoter) | Luc. act., normalized to lacZ (mCAR promoter) | Normalized Luc. act., normalized to control (mCAR promoter) | luciferase activity normalized to lacZ activity and to a control, hCAR (hCAR promoter) | Luc. act., normalized to lacZ (hCAR promoter) | Normalized Luc. act., normalized to control (hCAR promoter) | Luc. act., normalized to lacZ (mDio1 promoter) | Normalized Luc. act., normalized to control (mDio1 promoter) | mDio1 promoter reporter activity (mDio1 promoter) |
| --- | --- | --- | --- | --- | --- | --- | --- | --- | --- | --- | --- | --- | --- | --- | --- |
| B1 | 49.7 | 1.0 | 0.95 | 0.58 | 48.9 | 0.6 | 0.77 | 29.38 | 0.8 | 0.81 | 25.6 | 0.8 | 2.4 | 0.5 | 0.55 |
| B2 | 29.4 | 0.6 | 0.56 | 0.72 | 60.4 | 0.7 | 0.57 | 21.58 | 0.6 | 0.54 | 16.9 | 0.5 | 6.6 | 1.5 | 1.48 |
| B3 | 31.5 | 0.6 | 0.60 | 0.72 | 60.4 | 0.7 | 0.57 | 21.74 | 0.6 | 0.58 | 18.4 | 0.6 | 6.3 | 1.4 | 1.41 |
| B4 | 53.6 | 1.0 | 1.03 | 1.09 | 91.7 | 1.1 | 0.98 | 37.53 | 1.0 | 1.00 | 31.5 | 1.0 | 7.8 | 1.8 | 1.75 |
| B5 | 50.7 | 1.0 | 0.97 | 0.64 | 53.5 | 0.6 | 0.78 | 29.68 | 0.8 | 0.93 | 29.2 | 0.9 | 5.1 | 1.1 | 1.13 |
